Results as given in patent US20100048468A1 (Amgen, published 2010).
Residue numbers refer to the chain shown, from its start. Non-standard residues stand in square brackets, D forms with d. Groups on a side chain read outwards from the residue. Primed or numbered codes have the meaning given here. No end group written: not given here. maleimide = maleimide group of a PEG-maleimide, coupled to the cysteine thiol (thioether); mPEG40k‑branched = branched 40 kDa PEG (2 × 20 kDa) maleimide, attached to the Cys thiol; mPEG‑maleimide = 30 kD linear mPEG-maleimide attached to the Cys; mPEG 20 kDa = 20 kD mPEG-maleimide, thioether-linked to the Cys; branched PEG 40 kDa = branched polyethylene glycol of 40 kDa; branched PEG 40 kDa″ = 40 kDa branched poly(ethylene glycol); Aib′ = alpha aminobutyric acid (source's wording)

T1: mouse GLP-1 receptor (mouse, UniProt O35659 22-463)
T1 sequence (looked up): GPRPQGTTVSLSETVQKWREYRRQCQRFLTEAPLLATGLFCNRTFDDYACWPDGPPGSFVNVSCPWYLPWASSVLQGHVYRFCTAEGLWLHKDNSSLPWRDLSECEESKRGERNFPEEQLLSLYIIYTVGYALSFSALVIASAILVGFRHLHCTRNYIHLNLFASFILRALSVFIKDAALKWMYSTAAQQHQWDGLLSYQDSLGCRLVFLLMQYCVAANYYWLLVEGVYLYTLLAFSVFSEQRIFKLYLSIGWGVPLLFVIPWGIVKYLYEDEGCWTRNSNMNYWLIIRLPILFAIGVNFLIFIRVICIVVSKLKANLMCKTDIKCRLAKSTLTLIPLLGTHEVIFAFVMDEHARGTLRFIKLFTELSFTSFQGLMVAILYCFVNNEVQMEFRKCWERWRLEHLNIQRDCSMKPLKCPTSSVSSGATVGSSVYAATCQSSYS

T2: mouse GLP-1 receptor (mouse), O35659
T2 chain: T1 sequence (looked up)

B1: cgGLP-2 (SEQ ID NO: 6 + 40k branched PEG) (peptide)
peptide: HGEGTFTSDVSSYLEGC(branched PEG 40 kDa)AAKEFIAWLVKGRG
B2: cgGLP-1 (SEQ ID NO: 6 + 20K PEG) (peptide)
peptide: HGEGTFTSDVSSYLEGC([maleimide-mPEG 20 kDa])AAKEFIAWLVKGRG
B3: cgGLP-9 (SEQ ID NO: 6 + 20k PEG dimer) (peptide)
peptide: HGEGTFTSDVSSYLEGCAAKEFIAWLVKGRG
modifications: not checked
B4: cgGLP-7 (SEQ ID NO: 6 + 30k PEG) (peptide)
peptide: HGEGTFTSDVSSYLEGC(PEG 30 kDa)AAKEFIAWLVKGRG
B5: HGEGTFTSDVSSYLEGCAAKEFIAWLVKGRGSSGAPPPS (SEQ ID NO: 7) (peptide)
peptide: HGEGTFTSDVSSYLEGCAAKEFIAWLVKGRGSSGAPPPS
notes: Unconjugated peptide
B6: cgGLP-15 (SEQ ID NO: 8 + 20k PEG dimer) (peptide)
peptide: B5 peptide with V27K, K28N, R30G, G31P
modifications: not fully specified (residue 17); also: dimer: two peptides on one forked PEG-(maleimide)2
B7: HGEGTFTSDVSSYLEGCAAKEFIAWLKNGGPSSGAPPPS (SEQ ID NO: 8) (peptide)
peptide: B5 peptide with V27K, K28N, R30G, G31P
notes: Unconjugated peptide
B8: cgGLP-14 (SEQ ID NO: 7 + 20k PEG dimer) (peptide)
peptide: B5 peptide
modifications: not fully specified (residue 17); also: dimer: two peptides on one forked PEG-(maleimide)2
B9: HGEGTFTSDVSSYLEGCAAKEFIAWLVKGRG (SEQ ID NO: 6) (peptide)
peptide: B3 peptide
notes: Unconjugated peptide
B10: cgGLP-3 (SEQ ID NO: 6 + 8k PEG dumbbell) (peptide)
peptide: B3 peptide
modifications: not fully specified (residue 17); also: dimer: two peptides on one mal-PEG-mal, one at each end
B11: cgGLP-12 (SEQ ID NO: 7 + 20k PEG monomer) (peptide)
peptide: HGEGTFTSDVSSYLEGC(PEG 20 kDa)AAKEFIAWLVKGRGSSGAPPPS
B12: H[Aib]EGT FTSDVSSYLEGQAAKEFIAWLVKGRGCSGG (SEQ ID NO: 11) (peptide)
peptide: HXEGTFTSDVSSYLEGQAAKEFIAWLVKGRGCSGG
modifications: Aib (2-aminoisobutyric acid) at position 8 (GLP-1 numbering; residue 2 of the entry)
notes: Unconjugated peptide
B13: cgGLP-17 (SEQ ID NO: 11 + 20k PEG) (peptide)
peptide: B12 peptide
modifications: Aib at position 8 (residue 2 of the entry); 20k PEG on the cysteine at position 38 (GLP-1 numbering; residue 32 of the entry)
B14: H[bAla]EGT FTSDVSSYLEGQAAKEFIAWLVKGRGCSGG (SEQ ID NO: 12) (peptide)
peptide: B12 peptide
modifications: bAla (beta aminopropionic acid) at position 8 (GLP-1 numbering; residue 2 of the entry)
B15: cgGLP-16 (SEQ ID NO: 10 + 30k PEG) (peptide)
peptide: HGEGTFTSDVSSYLEGQAAKEFIAWLVKGRGC(PEG 30 kDa)SG
B16: cgGLP-8 (SEQ ID NO: 10 + 30k PEG) (peptide)
peptide: HGEGTFTSDVSSYLEGQAAKEFIAWLVKGRGC(PEG 30 kDa)SG
B17: HGEGTFTSDVSSYLEGQAAKEFIAWLVKGRGCSG (SEQ ID NO: 10) (peptide)
peptide: HGEGTFTSDVSSYLEGQAAKEFIAWLVKGRGCSG
B18: cgGLP-4 & mgGLP-09A (SEQ ID NO: 10 + 20k PEG) (peptide)
peptide: B17 peptide
modifications: not fully specified (residue 32)
notes: also called cgGLP-09A
B19: cgGLP-6 (SEQ ID NO: 10 + 8k PEG dumbbell) (peptide)
peptide: B17 peptide
modifications: not fully specified (residue 32); also: dimer: two peptides on one mal-PEG-mal, one at each end
B20: cgGLP-5 (SEQ ID NO: 10 + 40k branched PEG) (peptide)
peptide: HGEGTFTSDVSSYLEGQAAKEFIAWLVKGRGC(branched PEG 40 kDa″)SG
B21: cgGLP-29 (SEQ ID NO: 22 + 40k branched PEG) (peptide)
peptide: HGEGTFTSDVSSYLE[Aib′]QAAKEFIAWLVKGRGC(mPEG40k‑branched)SG-NH2
B22: cgGLP-20 (SEQ ID NO: 25 + 20k mPEG) (peptide)
peptide: H[Aib′]EGTFTSDVSSYLE[Aib′]QAAKEFIAWLVKGRGC(mPEG 20 kDa)SG
B23: mgGLP-15 (SEQ ID NO: 24 + 20k PEG) (peptide)
peptide: HGEGTFTSDVSSYLE[Aib′]QAAKEFIAWLVKGRGC(mPEG‑maleimide 20 kDa)SGG-NH2
B24: cgGLP-28 (SEQ ID NO: 22 + 30k PEG) (peptide)
peptide: HGEGTFTSDVSSYLE[Aib′]QAAKEFIAWLVKGRGC(mPEG‑maleimide)SG-NH2
modifications: also: PEG on Cys32: 30k, but the text says branched 40 kDa
B25: [Gly8]cyclo[21-26] GLP1(7-37)-amide (SEQ ID NO: 42) (peptide)
peptide: B3 peptide with C17Q
modifications: side-chain cyclic lactam between positions 21 (Glu) and 26 (Lys) (GLP-1 numbering; residues 15 and 20 of the entry); C-terminal amide
B26: [Gly8]GLP1(7-37) cyc[Glu15-Lys19] (SEQ ID NO: 36) (peptide)
peptide: B3 peptide with C17Q, A19K
modifications: side-chain cyclic lactam between Glu15 and Lys19 (counted on the peptide; GLP-1 positions 21 and 25); C-terminal amide
B27: [Gly8]GLP1(7-37) cyclo[Glu18-Lys22] (SEQ ID NO: 39) (peptide)
peptide: B3 peptide with C17Q, A18E, F22K
modifications: side-chain cyclic lactam between Glu18 and Lys22 (counted on the peptide; GLP-1 positions 24 and 28); C-terminal amide

The binders below were run against T3, human GLP-1 receptor (human, UniProt P43220 24-463) (assay: cell-based or functional assay).
Target sequence in this assay (P43220 24-463): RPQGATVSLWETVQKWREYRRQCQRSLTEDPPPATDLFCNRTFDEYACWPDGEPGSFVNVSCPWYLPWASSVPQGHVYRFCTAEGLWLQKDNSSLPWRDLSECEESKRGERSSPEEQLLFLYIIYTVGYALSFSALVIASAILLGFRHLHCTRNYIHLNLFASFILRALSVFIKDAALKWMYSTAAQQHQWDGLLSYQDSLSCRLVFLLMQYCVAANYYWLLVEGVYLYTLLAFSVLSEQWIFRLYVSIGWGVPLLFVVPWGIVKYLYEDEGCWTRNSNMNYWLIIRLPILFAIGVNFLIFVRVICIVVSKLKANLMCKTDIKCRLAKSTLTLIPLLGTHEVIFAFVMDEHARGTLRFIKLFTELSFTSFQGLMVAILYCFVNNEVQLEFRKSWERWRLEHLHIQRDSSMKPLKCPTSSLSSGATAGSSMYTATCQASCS
Work on B1 yielded an EC50 human of 0.7 nM.
B2 gave an EC50 human of 12 nM.
With B3 the EC50 human was 1 nM.
In the case of B4, the EC50 human is reported as 0.2 nM.

Target: T3, human GLP-1 receptor
Test: cell-based or functional assay
Remark: another data set of the same source
B5 gave an EC50 human of 0.1 nM.
B6 was tested, and the EC50 human was 0.8 nM.
B7 was tested, and the EC50 human was 0.07 nM.
B8 was tested, and the EC50 human was 0.6 nM.
B9 showed an EC50 human of 0.24 nM.
Work on B10 yielded an EC50 human of 0.2 nM.
B11 was tested, and the EC50 human was 1 nM.

These binders were tested against T1, mouse GLP-1 receptor (assay: cell-based or functional assay).
Binder B1 has an EC50 mouse of 3.6 nM.
Work on B2 yielded an EC50 mouse of 245 nM.
For B5, the EC50 mouse was 0.8 nM.
B6 was tested, and the EC50 mouse was 2 nM.
With B7 the EC50 mouse was 0.3 nM.
B8 showed an EC50 mouse of 4 nM.
With B9 the EC50 mouse was 1.4 nM.
B10 was tested, and the EC50 mouse was 5.7 nM.
For B11, the EC50 mouse was 8 nM.
Work on B4 yielded an EC50 mouse of 2.9 nM.

Target: T3, human GLP-1 receptor
Test: cell-based or functional assay
Remark: another data set of the same source
In the case of B12, the EC50 human is reported as 4 nM.
B13 was tested, and the EC50 human was 20 nM.
B14 showed an EC50 human of over 100 nM.
Binder B15 has an EC50 human of 0.39 nM.
B16 was tested, and the EC50 human was 0.4 nM.
B17 showed an EC50 human of 0.05 nM.
For B18, the EC50 human was 0.23 nM.
B19 was tested, and the EC50 human was about 0.1 nM.

Target: T1, mouse GLP-1 receptor
Test: cell-based or functional assay
Remark: another data set of the same source
With B12 the EC50 mouse was over 50 nM.
B13 was tested, and the EC50 mouse was over 100 nM.
With B15 the EC50 mouse was 4 nM.
Binder B16 has an EC50 mouse of 3 nM.
B17 showed an EC50 mouse of 0.32 nM.
In the case of B18, the EC50 mouse is reported as 1.8 nM.
Binder B19 has an EC50 mouse of 0.8 nM.
Work on B20 yielded an EC50 mouse of 1.5 nM.

Target: T3, human GLP-1 receptor
Test: cell-based or functional assay
Remark: another data set of the same source
B21 was tested, and the EC50 human was 0.15 nM.
For B22, the EC50 human was 0.099 nM.
Binder B23 has an EC50 human of 0.2 nM.
In the case of B24, the EC50 human is reported as 0.1 nM.

Target: T1, mouse GLP-1 receptor
Test: cell-based or functional assay
Remark: another data set of the same source
B21 was tested, and the EC50 mouse was 1 nM.
In the case of B22, the EC50 mouse is reported as 1.5 nM.
In the case of B23, the EC50 mouse is reported as 1.8 nM.
B24 was tested, and the EC50 mouse was 0.8 nM.

Target: T3, human GLP-1 receptor
Test: cell-based or functional assay
Remark: another data set of the same source
B25 showed an EC50 human of 0.6 nM.
B26 gave an EC50 human of 0.15 nM.
In the case of B27, the EC50 human is reported as 0.8 nM.

Target: T2, mouse GLP-1 receptor (mouse), O35659
Test: cell-based or functional assay
In the case of B3, the EC50 mouse is reported as 9 nM.

What follows are binders tested against T3, human GLP-1 receptor (assay: 125I-GLP-1 displacement, membranes of CHOK1 cells expressing human GLP-1 receptor).
Method: (§1) Membrane Preparation. […] Cells were sedimented at 1500 rpm for 10 minutes. The resulting pellets were homogenized in 15 mls of ice cold sucrose buffer (25 mM Tris-HCl, 0.32 M Sucrose, 0.25 g/L, sodium azide, pH 7.4) with a motorized, glass fitted, Teflon homogenizer. The homogenate was centrifuged at 48,000×g at 4° C. for 10 minutes, resuspended in 25 ml assay buffer (50 mM Tris-HCl, 5 mM MgCl₂, 10 mg/ml protease-free BSA, 0.1 mg/ml STI, and 0.1 mg/ml Pefabloc, pH 7.4) with a Tissue-Tearor (Biospec Products), then centrifuged again at 48,000×g for 10 minutes. The pellets were homogenized for a third time in 15 ml assay buffer using the Tissue-Tearor and again centrifuged at 48,000×g for 10 minutes. The resulting pellet was resuspended in assay buffer at a wet weight concentration of 4 mg/ml.
(§2) Ligand Binding Assay. Binding assays were performed in 96-well U-bottom plates. […] The reaction was terminated by rapid filtration through Unfilter-96 GF/C glass fiber filter plates (FilterMate 196 Packard Harvester, PerkinElmer, Shelton, Conn.) pre-soaked in 0.5% polyethylenimine, followed by three washes with 300 μl of cold 50 mM Tris-HCl, pH 7.4. Bound radioactivity was determined using a TopCount microplate scintillation and luminescence counter (Packard Instrument Company, PerkinElmer, Shelton, Conn.). Nonlinear regression analyses of resulting concentration curves were performed using GraphPad Prism (GraphPad Software, Inc., San Diego, Calif.).
In vitro experiments were conducted to determine receptor binding and potency for a class of molecules having a glycine substitution at position 8, a cysteine substitution at position 22 and a variable C-terminus.
B5 was tested, and the IC50 was 100 nM.
B6 was tested, and the IC50 was 300 nM.
B7 gave an IC50 of 100 nM.
For B8, the IC50 was 300 nM.
B9 was tested, and the IC50 was 70 nM.
B10 gave an IC50 of 84 nM.
B11 showed an IC50 of 1000 nM.

Target: T3, human GLP-1 receptor
Test: as above
Remark: another data set of the same source
Method: as §1, §2
The pegylated molecules were conjugated at the cysteine at position 38.
With B12 the IC50 was 100 nM.
B13 was tested, and the IC50 was 1000 nM.
In the case of B18, the IC50 is reported as 130 nM.
In the case of B19, the IC50 is reported as 11 nM.

Target: T3, human GLP-1 receptor
Test: as above
Remark: another data set of the same source
Method: as §1
as §2, with “Calif.). […]” for “Calif.).”
B21 gave an IC50 of 800 nM.
B22 was tested, and the IC50 was 30 nM.
Work on B23 yielded an IC50 of 100 nM.
For B24, the IC50 was 71 nM.
